Test results: US11510965B2, “Vesicles comprising epidermal growth factor and compositions thereof” (Centro de Ingeniería Genética y Biotecnología, priority 2012, dated 2022)

Test system: acute lung injury induced by LPS-zymosan
Assay: Lethal model of acute lung injury (ALI) / ARDS in rats (LPS-zymosan)
Assay type: in vivo, Sprague Dawley rats
Procedure: Male Sprague Dawley rats with body weight between 250 and 280 grams were used. Lung injury was induced under general anesthesia (ketamine/xylazine) by intratracheal instillation of a combination of lipopolysaccharide (LPS)-zymosan. Immediately afterwards, the animals were randomly assigned to three experimental groups of 12 animals each.
The animals were allowed to evolve without any treatment until the onset of the first symptoms.
Therefore, treatments were begun approximately 8 hours after the toxins were instilled. The experiment was aimed at evaluating the effect of treatment with both EGF formulations solely on the acute phase of ARDS. The treatments were performed by orofacial mask adapted from a volatile anesthesia machine. Treatments were performed twice daily. The animals were also treated once a day with hydrocortisone acetate (10 mg/kg) as coadjuvant treatment.
After 72 hours of treatment onset, the study was stopped. Surviving animals were anesthetized and subjected to deep bronchoalveolar lavage in 5 ml of sterile saline for cytological and biochemical study, as well as arterial blood sampling for determination of blood gas parameters. Then the lungs were insufflated with 10 ml of 10% neutral formalin and processed for histology.

[1] = arterial blood, survivors at 72 hours
[2] = bronchoalveolar lavage, survivors at 72 hours

B1: EGF in physiological saline: spray of EGF (Epidermal Growth Factor) in physiological saline at 25 μg/ml/kg (protein, UniProt P01133 23-1207, looked up)
Pro-epidermal growth factor: PQHWSCPEGTLAGNGNSTCVGPAPFLIFSHGNSIFRIDTEGTNYEQLVVDAGVSVIMDFHYNEKRIYWVDLERQLLQRVFLNGSRQERVCNIEKNVSGMAINWINEEVIWSNQQEGIITVTDMKGNNSHILLSALKYPANVAVDPVERFIFWSSEVAGSLYRADLDGVGVKALLETSEKITAVSLDVLDKRLFWIQYNREGSNSLICSCDYDGGSVHISKHPTQHNLFAMSLFGDRIFYSTWKMKTIWIANKHTGKDMVRINLHSSFVPLGELKVVHPLAQPKAEDDTWEPEQKLCKLRKGNCSSTVCGQDLQSHLCMCAEGYALSRDRKYCEDVNECAFWNHGCTLGCKNTPGSYYCTCPVGFVLLPDGKRCHQLVSCPRNVSECSHDCVLTSEGPLCFCPEGSVLERDGKTCSGCSSPDNGGCSQLCVPLSPVSWECDCFPGYDLQLDEKSCAASGPQPFLLFANSQDIRHMHFDGTDYGTLLSQQMGMVYALDHDPVENKIYFAHTALKWIERANMDGSQRERLIEEGVDVPEGLAVDWIGRRFYWTDRGKSLIGRSDLNGKRSKIITKENISQPRGIAVHPMAKRLFWTDTGINPRIESSSLQGLGRLVIASSDLIWPSGITIDFLTDKLYWCDAKQSVIEMANLDGSKRRRLTQNDVGHPFAVAVFEDYVWFSDWAMPSVMRVNKRTGKDRVRLQGSMLKPSSLVVVHPLAKPGADPCLYQNGGCEHICKKRLGTAWCSCREGFMKASDGKTCLALDGHQLLAGGEVDLKNQVTPLDILSKTRVSEDNITESQHMLVAEIMVSDQDDCAPVGCSMYARCISEGEDATCQCLKGFAGDGKLCSDIDECEMGVPVCPPASSKCINTEGGYVCRCSEGYQGDGIHCLDIDECQLGEHSCGENASCTNTEGGYTCMCAGRLSEPGLICPDSTPPPHLREDDHHYSVRNSDSECPLSHDGYCLHDGVCMYIEALDKYACNCVVGYIGERCQYRDLKWWELRHAGHGQQQKVIVVAVCVVVLVMLLLLSLWGAHYYRTQKLLSKNPKNPYEESSRDVRSRRPADTEDGMSSCPQPWFVVIKEHQDLKNGGQPVAGEDGQAADGSMQPTSWRQEPQLCGMGTEQGCWIPVSSDKGSCPQVMERSFHMPSYGTQTLEGGVEKPHSLLSANPLWQQRALDPPHQMELTQ
modifications: Pro-epidermal growth factor
notes: spray of EGF (Epidermal Growth Factor) in physiological saline at 25 μg/ml/kg
Q: What does the source list for B1?
A: Death total (12 animals per group, 72 hours): 5; Death total (percent) (12 animals per group, 72 hours): (41.6%); Mortality (deaths) 48 hours (12 animals per group, EGF 25 μg/ml, orofacial mask twice daily): 5; Arterial pH [1]: 7.12 ± 0.1; Arterial saturation [1]: 76 ± 8.3; Inflammatory cells per ml [2]: 2.2 × 10^3; Red blood cells per ml [2]: 5.0 × 10^2; Total phospholipids per g of lung tissue [2]: 0.000241 g
